Data: article PMC8673838, “MCPH1 inhibits Condensin II during interphase by regulating its SMC2-Kleisin interface” (eLife, 2021)

Tests used:
[1] = target: T1, tetrameric condensin II lacking NCAPD3 (human, UniProt O95347 1-1197; Q9NTJ3 1-1288; Q6IBW4 1-605; Q86XI2 1-1143); test: pull-down; strep-tagged condensin complexes (0.1 µM) with at least a 10-fold molecular excess of MBP MCPH1 constructs or MBP, Strep-tactin sepharose, 20 mM Tris pH 7.5, 150 mM NaCl, 10 % glycerol, 1 mM DTT; five washes; Coomassie or silver stain; conditions: both partners purified
T1 construct: SMC2, human; SMC4, human; NCAPH2, human; NCAPG2, human; also called tetrameric condensin II lacking the CAP-D3 subunit; source: insect cells, purified as previously described (Kong et al., 2020); copies: + + +
T1 sequence (O95347 whole entry, chain 1 of 3): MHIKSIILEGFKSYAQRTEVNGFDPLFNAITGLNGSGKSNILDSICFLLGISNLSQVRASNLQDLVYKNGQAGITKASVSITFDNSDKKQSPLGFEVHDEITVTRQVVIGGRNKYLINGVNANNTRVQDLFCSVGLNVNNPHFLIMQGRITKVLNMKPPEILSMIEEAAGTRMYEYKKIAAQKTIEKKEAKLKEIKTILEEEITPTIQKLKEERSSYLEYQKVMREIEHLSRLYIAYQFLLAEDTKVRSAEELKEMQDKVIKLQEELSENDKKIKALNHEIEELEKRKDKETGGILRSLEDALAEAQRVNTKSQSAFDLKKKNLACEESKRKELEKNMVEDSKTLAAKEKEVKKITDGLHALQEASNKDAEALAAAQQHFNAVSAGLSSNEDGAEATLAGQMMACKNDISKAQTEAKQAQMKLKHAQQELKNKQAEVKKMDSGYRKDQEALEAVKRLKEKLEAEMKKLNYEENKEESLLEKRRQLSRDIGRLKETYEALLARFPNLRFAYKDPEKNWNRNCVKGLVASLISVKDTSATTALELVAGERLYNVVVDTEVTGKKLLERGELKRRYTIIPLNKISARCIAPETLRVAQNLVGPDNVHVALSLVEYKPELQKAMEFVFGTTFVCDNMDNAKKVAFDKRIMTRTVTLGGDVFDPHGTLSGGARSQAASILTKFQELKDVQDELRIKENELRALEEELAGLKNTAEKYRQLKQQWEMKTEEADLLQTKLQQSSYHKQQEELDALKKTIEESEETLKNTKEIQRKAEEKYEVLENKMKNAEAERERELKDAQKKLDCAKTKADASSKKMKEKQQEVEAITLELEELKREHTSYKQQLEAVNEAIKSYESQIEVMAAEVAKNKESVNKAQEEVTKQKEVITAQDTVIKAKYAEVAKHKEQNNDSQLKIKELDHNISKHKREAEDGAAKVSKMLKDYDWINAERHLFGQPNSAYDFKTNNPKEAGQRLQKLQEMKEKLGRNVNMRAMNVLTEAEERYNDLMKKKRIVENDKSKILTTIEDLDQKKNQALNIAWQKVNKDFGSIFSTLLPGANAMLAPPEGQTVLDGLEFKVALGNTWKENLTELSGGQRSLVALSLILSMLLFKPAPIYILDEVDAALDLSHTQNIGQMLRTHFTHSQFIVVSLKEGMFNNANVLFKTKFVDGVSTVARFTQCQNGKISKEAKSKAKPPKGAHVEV
T1 sequence (Q9NTJ3 whole entry, chain 2 of 3): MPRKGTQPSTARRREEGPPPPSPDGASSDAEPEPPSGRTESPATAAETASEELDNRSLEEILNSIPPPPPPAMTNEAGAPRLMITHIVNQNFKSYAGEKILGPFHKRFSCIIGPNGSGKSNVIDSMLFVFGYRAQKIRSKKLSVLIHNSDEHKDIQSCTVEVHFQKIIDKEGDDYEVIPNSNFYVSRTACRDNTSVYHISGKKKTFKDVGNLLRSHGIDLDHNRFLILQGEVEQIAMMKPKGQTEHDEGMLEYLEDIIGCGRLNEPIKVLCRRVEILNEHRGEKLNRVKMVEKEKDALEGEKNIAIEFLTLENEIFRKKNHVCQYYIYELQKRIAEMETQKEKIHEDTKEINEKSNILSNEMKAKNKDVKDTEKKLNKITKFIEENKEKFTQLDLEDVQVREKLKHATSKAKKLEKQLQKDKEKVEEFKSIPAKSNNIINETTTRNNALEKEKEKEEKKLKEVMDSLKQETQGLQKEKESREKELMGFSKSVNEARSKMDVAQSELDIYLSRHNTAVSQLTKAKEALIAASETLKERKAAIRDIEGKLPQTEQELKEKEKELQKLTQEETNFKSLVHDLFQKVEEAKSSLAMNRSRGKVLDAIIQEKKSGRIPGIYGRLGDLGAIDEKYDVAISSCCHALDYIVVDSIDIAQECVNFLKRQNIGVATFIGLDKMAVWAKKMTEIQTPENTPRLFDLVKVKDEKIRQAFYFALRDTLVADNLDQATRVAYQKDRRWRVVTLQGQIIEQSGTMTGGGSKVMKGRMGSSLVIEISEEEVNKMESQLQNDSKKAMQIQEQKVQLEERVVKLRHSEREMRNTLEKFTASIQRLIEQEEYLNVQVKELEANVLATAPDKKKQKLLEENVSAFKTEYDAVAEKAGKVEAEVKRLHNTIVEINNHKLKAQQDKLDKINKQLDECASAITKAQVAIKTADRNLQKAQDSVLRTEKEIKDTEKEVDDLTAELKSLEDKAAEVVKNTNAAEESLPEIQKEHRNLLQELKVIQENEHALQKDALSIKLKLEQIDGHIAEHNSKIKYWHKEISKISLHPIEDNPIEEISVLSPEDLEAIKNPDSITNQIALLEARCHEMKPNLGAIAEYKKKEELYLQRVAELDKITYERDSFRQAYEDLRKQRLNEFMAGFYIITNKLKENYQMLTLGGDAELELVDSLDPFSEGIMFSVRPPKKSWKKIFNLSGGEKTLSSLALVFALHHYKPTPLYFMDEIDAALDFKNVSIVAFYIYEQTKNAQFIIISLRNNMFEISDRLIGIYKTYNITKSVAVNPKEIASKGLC
T1 sequence (Q6IBW4 whole entry, chain 3 of 3): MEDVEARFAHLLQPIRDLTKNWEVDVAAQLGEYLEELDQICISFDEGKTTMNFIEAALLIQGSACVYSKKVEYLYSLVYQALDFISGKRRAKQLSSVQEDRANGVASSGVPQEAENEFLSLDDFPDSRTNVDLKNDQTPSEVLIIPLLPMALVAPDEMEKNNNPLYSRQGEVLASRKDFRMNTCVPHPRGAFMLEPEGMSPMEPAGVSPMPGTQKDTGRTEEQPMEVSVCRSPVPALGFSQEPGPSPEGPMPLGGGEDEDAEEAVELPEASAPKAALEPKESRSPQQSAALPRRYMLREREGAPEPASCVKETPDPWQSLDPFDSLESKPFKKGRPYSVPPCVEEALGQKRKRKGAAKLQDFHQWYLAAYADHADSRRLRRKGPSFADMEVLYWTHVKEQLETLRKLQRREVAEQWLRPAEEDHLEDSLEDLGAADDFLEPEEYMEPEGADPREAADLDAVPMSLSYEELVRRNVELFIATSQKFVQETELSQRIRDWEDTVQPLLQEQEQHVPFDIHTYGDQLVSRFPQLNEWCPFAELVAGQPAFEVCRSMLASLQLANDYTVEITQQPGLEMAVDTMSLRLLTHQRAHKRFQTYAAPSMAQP

[2] = target: T2, NCAPG2 subunit of human condensin II (human, UniProt Q86XI2 1-1143); test: as above; conditions: both partners purified
T2 construct: NCAPG2, human, HAWK subunit of condensin II; Never tested alone: the contact is drawn from complexes with and without this subunit; source: insect cells, as a subunit of purified condensin II (Kong et al., 2020)
T2 sequence (looked up): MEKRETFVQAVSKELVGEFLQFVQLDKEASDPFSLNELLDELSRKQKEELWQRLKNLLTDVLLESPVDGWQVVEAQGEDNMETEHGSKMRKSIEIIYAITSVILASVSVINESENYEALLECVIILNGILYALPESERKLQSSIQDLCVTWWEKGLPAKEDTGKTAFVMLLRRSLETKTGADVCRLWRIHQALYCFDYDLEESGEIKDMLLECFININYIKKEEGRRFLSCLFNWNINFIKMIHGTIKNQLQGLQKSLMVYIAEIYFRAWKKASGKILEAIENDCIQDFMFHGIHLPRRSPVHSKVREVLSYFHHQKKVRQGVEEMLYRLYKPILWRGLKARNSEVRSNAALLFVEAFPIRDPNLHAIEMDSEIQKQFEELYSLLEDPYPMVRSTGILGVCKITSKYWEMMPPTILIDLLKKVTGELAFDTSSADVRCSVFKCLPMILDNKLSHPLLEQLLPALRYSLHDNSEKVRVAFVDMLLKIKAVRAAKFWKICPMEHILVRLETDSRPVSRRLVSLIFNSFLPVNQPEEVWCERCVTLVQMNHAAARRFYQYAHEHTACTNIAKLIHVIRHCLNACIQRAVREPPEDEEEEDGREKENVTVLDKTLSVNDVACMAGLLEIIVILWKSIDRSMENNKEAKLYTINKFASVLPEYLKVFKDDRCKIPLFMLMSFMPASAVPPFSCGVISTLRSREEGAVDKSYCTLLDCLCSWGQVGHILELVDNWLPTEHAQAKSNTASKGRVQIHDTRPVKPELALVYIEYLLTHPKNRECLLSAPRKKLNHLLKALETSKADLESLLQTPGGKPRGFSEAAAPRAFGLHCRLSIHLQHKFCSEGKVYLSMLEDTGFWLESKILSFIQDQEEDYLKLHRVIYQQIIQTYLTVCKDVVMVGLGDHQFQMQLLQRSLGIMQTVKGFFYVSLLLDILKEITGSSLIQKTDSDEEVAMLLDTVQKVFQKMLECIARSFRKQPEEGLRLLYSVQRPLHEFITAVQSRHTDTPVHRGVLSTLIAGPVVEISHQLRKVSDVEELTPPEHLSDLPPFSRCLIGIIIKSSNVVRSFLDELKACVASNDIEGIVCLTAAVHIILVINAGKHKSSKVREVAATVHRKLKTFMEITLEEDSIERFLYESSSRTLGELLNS

[3] = target: T3, human condensin II pentameric complex (SMC2, SMC4, NCAPH2, NCAPD3, NCAPG2) (human, UniProt O95347 1-1197; Q9NTJ3 1-1288; Q6IBW4 1-605; P42695 1-1498; Q86XI2 1-1143); test: native gel or EMSA; condensin II at increasing concentrations with MCPH1_(1-435)-MBP, MBP or 1 µM 5-FAM peptide and 50 nM Cy5-labelled 50 bp dsDNA; 15 min on ice; 2 % agarose, 0.5 x TBE; conditions: both partners purified
T3 construct: SMC2, human, subunit of condensin II; SMC4, human, subunit of condensin II; NCAPH2, human, kleisin subunit of condensin II; NCAPD3 (CAP-D3), human, HAWK subunit of condensin II; NCAPG2 (CAPG2), human, HAWK subunit of condensin II; It says only 'strep-tagged condensin II'; also called pentameric condensin II; strep-tagged condensin II; source: insect cells, purified as previously described (Kong …)
T3 sequence (O95347 whole entry, chain 1 of 4): as the sequence (O95347 whole entry, chain 1 of 3) above
T3 sequence (Q9NTJ3 whole entry, chain 2 of 4): as the sequence (Q9NTJ3 whole entry, chain 2 of 3) above
T3 sequence (Q6IBW4 whole entry, chain 3 of 4): as the sequence (Q6IBW4 whole entry, chain 3 of 3) above
T3 sequence (P42695 whole entry, chain 4 of 4): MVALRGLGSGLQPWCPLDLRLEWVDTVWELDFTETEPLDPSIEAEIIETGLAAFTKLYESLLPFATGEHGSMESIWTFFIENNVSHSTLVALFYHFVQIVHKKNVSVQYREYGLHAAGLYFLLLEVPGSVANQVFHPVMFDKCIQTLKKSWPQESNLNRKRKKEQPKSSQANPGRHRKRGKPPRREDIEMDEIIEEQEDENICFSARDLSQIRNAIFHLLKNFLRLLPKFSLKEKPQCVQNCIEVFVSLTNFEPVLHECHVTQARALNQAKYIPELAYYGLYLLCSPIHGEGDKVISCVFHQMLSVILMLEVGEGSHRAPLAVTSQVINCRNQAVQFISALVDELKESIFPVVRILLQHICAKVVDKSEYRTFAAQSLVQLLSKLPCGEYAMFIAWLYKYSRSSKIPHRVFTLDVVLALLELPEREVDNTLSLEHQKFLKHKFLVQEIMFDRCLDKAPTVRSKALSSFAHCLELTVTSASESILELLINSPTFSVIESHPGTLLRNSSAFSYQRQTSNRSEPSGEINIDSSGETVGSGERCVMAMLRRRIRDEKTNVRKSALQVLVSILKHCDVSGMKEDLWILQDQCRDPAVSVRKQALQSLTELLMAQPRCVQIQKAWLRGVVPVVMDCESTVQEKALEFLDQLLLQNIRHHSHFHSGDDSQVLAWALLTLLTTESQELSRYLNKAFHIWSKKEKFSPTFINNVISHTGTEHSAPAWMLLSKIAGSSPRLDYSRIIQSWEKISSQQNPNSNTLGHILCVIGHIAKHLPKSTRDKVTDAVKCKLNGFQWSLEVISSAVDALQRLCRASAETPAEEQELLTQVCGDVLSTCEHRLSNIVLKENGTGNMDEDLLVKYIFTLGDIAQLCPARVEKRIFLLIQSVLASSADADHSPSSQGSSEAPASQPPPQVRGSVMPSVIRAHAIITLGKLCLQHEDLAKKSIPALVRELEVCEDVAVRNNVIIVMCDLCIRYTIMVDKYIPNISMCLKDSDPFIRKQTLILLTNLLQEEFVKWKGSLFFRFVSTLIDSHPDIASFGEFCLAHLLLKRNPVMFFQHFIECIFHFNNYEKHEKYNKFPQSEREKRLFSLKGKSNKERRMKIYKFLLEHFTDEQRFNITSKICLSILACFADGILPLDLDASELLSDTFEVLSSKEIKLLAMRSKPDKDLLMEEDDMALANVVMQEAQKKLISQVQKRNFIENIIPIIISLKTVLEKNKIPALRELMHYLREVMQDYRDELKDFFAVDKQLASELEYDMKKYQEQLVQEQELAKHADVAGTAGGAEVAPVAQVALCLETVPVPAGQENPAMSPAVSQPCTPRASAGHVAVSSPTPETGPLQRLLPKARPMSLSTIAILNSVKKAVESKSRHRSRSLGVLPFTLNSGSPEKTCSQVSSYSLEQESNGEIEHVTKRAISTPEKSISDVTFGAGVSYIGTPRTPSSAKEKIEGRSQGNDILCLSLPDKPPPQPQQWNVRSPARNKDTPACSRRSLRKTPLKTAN

[4] = target: T4, MCPH1 1-435-MBP (Homo sapiens, UniProt Q8NEM0 1-435); test: EMSA; 50 nM DNA; EMSA with 50 nM 5'-Cy5 50 bp dsDNA; EMSA buffer, salt, pH and temperature not given in the material; conditions: protein: recombinant; tags: N-term 6xHis, C-term MBP; label: 5' Cy5; blunt
T4 sequence: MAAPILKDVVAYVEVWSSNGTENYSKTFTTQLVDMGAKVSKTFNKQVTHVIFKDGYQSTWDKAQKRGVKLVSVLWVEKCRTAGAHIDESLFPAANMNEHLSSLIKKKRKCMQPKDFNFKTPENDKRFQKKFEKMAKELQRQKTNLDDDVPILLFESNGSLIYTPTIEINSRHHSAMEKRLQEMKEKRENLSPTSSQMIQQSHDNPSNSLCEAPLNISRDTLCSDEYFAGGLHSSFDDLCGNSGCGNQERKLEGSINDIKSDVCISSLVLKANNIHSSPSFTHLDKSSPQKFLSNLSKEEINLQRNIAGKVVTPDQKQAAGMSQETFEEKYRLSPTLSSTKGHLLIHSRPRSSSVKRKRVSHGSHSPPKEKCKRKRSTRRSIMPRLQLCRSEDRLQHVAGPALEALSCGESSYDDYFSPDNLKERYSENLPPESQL

[5] = target: condensin II pentamer (Homo sapiens, UniProt O95347;Q9NTJ3;Q6IBW4;P42695;Q86XI2 1-1197;1-1288;1-605;1-1498;1-1143); test: EMSA; with MBP control or without peptide; EMSA with 50 nM 5'-Cy5 50 bp dsDNA; EMSA buffer, salt, pH and temperature not given in the material; conditions: protein: recombinant; tags: Strep tag; copies: 1;1;1;1;1; label: 5' Cy5; blunt
[6] = target: condensin II pentamer;MCPH1 1-435-MBP (Homo sapiens;Homo sapiens, UniProt O95347;Q9NTJ3;Q6IBW4;P42695;Q86XI2;Q8NEM0 …, |); test: EMSA; condensin II bands shifted upward with MCPH1 1-435-MBP; EMSA with 50 nM 5'-Cy5 50 bp dsDNA; EMSA buffer, salt, pH and temperature not given in the material; conditions: protein: recombinant;recombinant; tags: Strep tag;N-term 6xHis, C-term MBP; copies: 1;1;1;1;1;1; label: 5' Cy5; blunt

Measured: binding result

B1: MCPH1_(1-435)-MBP (domain or fragment, human, UniProt Q8NEM0 1-435, looked up)
chain: MAAPILKDVVAYVEVWSSNGTENYSKTFTTQLVDMGAKVSKTFNKQVTHVIFKDGYQSTWDKAQKRGVKLVSVLWVEKCRTAGAHIDESLFPAANMNEHLSSLIKKKRKCMQPKDFNFKTPENDKRFQKKFEKMAKELQRQKTNLDDDVPILLFESNGSLIYTPTIEINSRHHSAMEKRLQEMKEKRENLSPTSSQMIQQSHDNPSNSLCEAPLNISRDTLCSDEYFAGGLHSSFDDLCGNSGCGNQERKLEGSINDIKSDVCISSLVLKANNIHSSPSFTHLDKSSPQKFLSNLSKEEINLQRNIAGKVVTPDQKQAAGMSQETFEEKYRLSPTLSSTKGHLLIHSRPRSSSVKRKRVSHGSHSPPKEKCKRKRSTRRSIMPRLQLCRSEDRLQHVAGPALEALSCGESSYDDYFSPDNLKERYSENLPPESQL
notes: the text says the tag was moved to the C-terminus for this experiment; source: E. coli BL21 (DE3) pLysS, purified (Ni-NTA, ion exchange or heparin); not shown: MBP, C-terminal, kept
binds: [1] | [2] | [3]

B2: 50 bp dsDNA (dsDNA)
DNA 1: CTGTCACACCCTGTCACACCCTGTCACACCCTGTCACACCCTGTCACACC
DNA 2: GGTGTGACAGGGTGTGACAGGGTGTGACAGGGTGTGACAGGGTGTGACAG
binds: [4] | [5] | [6]
